Data reported in PMC8639466.
Each block holds one molecule with its values, some of them ahead of it.

Tests used:
[1] = target: hSSRP1-PH2 (Leu101-Thr195) (human); test: SEC; molecular weight calibration of the single protein in solution
[2] = target: hSSRP1-HMG546-616 (Homo sapiens, UniProt Q08945 546-616); test: EMSA; EMSA: 5 uM DNA, 137 mM NaCl, 2.7 mM KCl, 10 mM Na2HPO4, 2 mM KH2PO4 pH 7.4, 30 min on ice, 12% native PAGE; single-molecule: 10 mM Tris, 20 mM EDTA, 25 mM KCl; conditions: protein: recombinant; tags: GST or His-SUMO fusion vector; GST cleaved; label: 5'-FAM on strand 1; blunt
[3] = target: hSSRP1-HMG520-616 (Homo sapiens, UniProt Q08945 520-616); test: as above; conditions: protein: recombinant; tags: GST or His-SUMO fusion vector; GST cleaved; label: 5'-FAM on strand 1; blunt
hSSRP1-HMG520-616, sequence (Q08945 520-616): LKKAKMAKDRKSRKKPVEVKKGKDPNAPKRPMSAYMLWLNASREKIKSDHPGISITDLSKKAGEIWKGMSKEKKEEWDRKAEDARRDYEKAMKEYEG

hSSRP1-HMG546-616, sequence (Q08945 546-616): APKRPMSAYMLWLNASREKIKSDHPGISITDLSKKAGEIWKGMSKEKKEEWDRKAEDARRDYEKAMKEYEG

stoichiometry N [1]: 4
Molecule: hSSRP1-PH2 (Leu101-Thr195) (domain or fragment)

B1: 15 bp FAM GT-rich dsDNA (dsDNA)
DNA 1: GGGGTGATTGTTCAG
DNA 2: CTGAACAATCACCCC
binding result [2]: no binding
binding result [3]: binds
